# From IntAct's records for PubMed 29039417
# B1: BBSome complex member BBS1 (Homo sapiens), Q8NFJ9 (parent)
# chain: MAAASSSDSDACGAESNEANSKWLDAHYDPMANIHTFSACLALADLHGDGEYKLVVGDLGPGGQQPRLKVLKGPLVMTESPLPALPAAAATFLMEQHEPRTPALALASGPCVYVYKNLRPYFKFSLPQLPPNPLEQDLWNQAKEDRIDPLTLKEMLESIRETAEEPLSIQSLRFLQLELSEMEAFVNQHKSNSIKRQTVITTMTTLKKNLADEDAVSCLVLGTENKELLVLDPEAFTILAKMSLPSVPVFLEVSGQFDVEFRLAAACRNGNIYILRRDSKHPKYCIELSAQPVGLIRVHKVLVVGSTQDSLHGFTHKGKKLWTVQMPAAILTMNLLEQHSRGLQAVMAGLANGEVRIYRDKALLNVIHTPDAVTSLCFGRYGREDNTLIMTTRGGGLIIKILKRTAVFVEGGSEVGPPPAQAMKLNVPRKTRLYVDQTLREREAGTAMHRAFQTDLYLLRLRAARAYLQALESSLSPLSTTAREPLKLHAVVQGLGPTFKLTLHLQNTSTTRPVLGLLVCFLYNEALYSLPRAFFKVPLLVPGLNYPLETFVESLSNKGISDIIKVLVLREGQSAPLLSAHVNMPGSEGLAAA
# partner: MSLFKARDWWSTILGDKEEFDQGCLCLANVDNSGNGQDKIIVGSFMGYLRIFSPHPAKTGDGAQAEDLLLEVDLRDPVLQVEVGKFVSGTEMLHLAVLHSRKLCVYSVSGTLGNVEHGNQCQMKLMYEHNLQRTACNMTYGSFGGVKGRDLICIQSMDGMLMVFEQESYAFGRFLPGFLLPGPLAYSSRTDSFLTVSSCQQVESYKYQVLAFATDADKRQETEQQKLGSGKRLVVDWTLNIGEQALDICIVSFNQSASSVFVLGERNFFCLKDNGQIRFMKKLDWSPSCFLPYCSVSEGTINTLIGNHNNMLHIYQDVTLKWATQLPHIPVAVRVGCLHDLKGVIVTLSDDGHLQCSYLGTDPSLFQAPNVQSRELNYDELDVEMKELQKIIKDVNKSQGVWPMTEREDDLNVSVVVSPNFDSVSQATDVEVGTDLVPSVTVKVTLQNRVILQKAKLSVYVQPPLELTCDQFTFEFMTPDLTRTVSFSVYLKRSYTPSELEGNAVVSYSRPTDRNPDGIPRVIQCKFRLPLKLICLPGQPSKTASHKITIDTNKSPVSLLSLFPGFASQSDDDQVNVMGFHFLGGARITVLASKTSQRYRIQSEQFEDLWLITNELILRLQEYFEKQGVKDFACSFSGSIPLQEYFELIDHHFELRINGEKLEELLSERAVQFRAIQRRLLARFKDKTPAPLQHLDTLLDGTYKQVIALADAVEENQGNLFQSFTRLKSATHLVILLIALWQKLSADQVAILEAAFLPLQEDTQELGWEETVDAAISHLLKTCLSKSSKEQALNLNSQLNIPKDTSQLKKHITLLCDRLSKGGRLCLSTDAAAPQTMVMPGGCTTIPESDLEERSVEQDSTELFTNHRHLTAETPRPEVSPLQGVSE
# Variants of: B1
# Details: with pthb1_human BBS9, Q3SYG4
row,Variant,effect of a mutation on the interaction
1,MAAASSSDSDACGAESNEANSKWLDAHYDPMANIHTFSACLALADLHGDGEYKLVVGDLGPGGQQPRLKVLKGPLVMTESPLPALPAAAATFLMEQHEPRTPALALASGPCVYVYKNLRPYFKFSLPQLPPNPLEQDLWNQAKEDRIDPLTLKEMLESIRETAEEPLSIQSLRFLQLELSEMEAFVNQHKSNSIKRQTVITTMTTLKKNLADEDAVSCLVLGTENKELLVLDPEAFTILAKMSLPSVPVFLEVSGQFDVEFRLAAACRNGNIYILRRDSKHPKYCIELSAQPVGLIRVHKVLVVGSTQDSLHGFTHKGKKLWTVQMPAAILTMNLLEQHSRGLQAVMAGLANGEVRIYRDKALLNVIHTPDAVTSLCFGRYGREDNTLIMTTRGGGLIIKILKRTAVFVEGGSEVGPPPAQAMKLNVPRKTRLYVDQTLREREAGTAMHRAFQTDLYLLRLRAARAYLQALESSLSPLSTTAREPLKLHAVVQGLGPTFKLTLHLQNTSTTRPVLGLLVCFLYNEALYSLPRAFFKVPLLVPGLNYPLETFVESLSNKGISDIIAVLVLREGQSAPLLSAHVNMPGSEGLAAA [K565A],with no effect
2,MAAASSSDSDACGAESNEANSKWLDAHYDPMANIHTFSACLALADLHGDGEYKLVVGDLGPGGQQPRLKVLKGPLVMTESPLPALPAAAATFLMEQHEPRTPALALASGPCVYVYKNLRPYFKFSLPQLPPNPLEQDLWNQAKEDRIDPLTLKEMLESIRETAEEPLSIQSLRFLQLELSEMEAFVNQHKSNSIKRQTVITTMTTLKKNLADEDAVSCLVLGTENKELLVLDPEAFTILAKMSLPSVPVFLEVSGQFDVEFRLAAACRNGNIYILRRDSKHPKYCIELSAQPVGLIRVHKVLVVGSTQDSLHGFTHKGKKLWTVQMPAAILTMNLLEQHSRGLQAVMAGLANGEVRIYRDKALLNVIHTPDAVTSLCFGRYGREDNTLIMTTRGGGLIIKILKRTAVFVEGGSEVGPPPAQAMKLNVPRKTRLYVDQTLREREAGTAMHRAFQTDLYLLRLRAARAYLQALESSLSPLSTTAREPLKLHAVVQGLGPTFKLTLHLQNTSTTRPVLGLLVCFLYNEALYSLPRAFFKVPLLVPGLNYPLETFVESLSNKGISDEIKVLVLREGQSAPLLSAHVNMPGSEGLAAA [I563E],with no effect
3,MAAASSSDSDACGAESNEANSKWLDAHYDPMANIHTFSACLALADLHGDGEYKLVVGDLGPGGQQPRLKVLKGPLVMTESPLPALPAAAATFLMEQHEPRTPALALASGPCVYVYKNLRPYFKFSLPQLPPNPLEQDLWNQAKEDRIDPLTLKEMLESIRETAEEPLSIQSLRFLQLELSEMEAFVNQHKSNSIKRQTVITTMTTLKKNLADEDAVSCLVLGTENKELLVLDPEAFTILAKMSLPSVPVFLEVSGQFDVEFRLAAACRNGNIYILRRDSKHPKYCIELSAQPVGLIRVHKVLVVGSTQDSLHGFTHKGKKLWTVQMPAAILTMNLLEQHSRGLQAVMAGLANGEVRIYRDKALLNVIHTPDAVTSLCFGRYGREDNTLIMTTRGGGLIIKILKRTAVFVEGGSEVGPPPAQAMKLNVPRKTRLYVDQTLREREAGTAMHRAFQTDLYLLRLRAARAYLQALESSLSPLSTTAREPLKLHAVVQGLGPTFKLTLHLQNTSTTRPVLGLLVCFLYNEALYSLPRAFFKVPLLVPGLNYPLETFVESLSNKGISDAIKVLVLREGQSAPLLSAHVNMPGSEGLAAA [I563A],with no effect

# Next, values leading:
row,effect of a mutation on the interaction,Variant
1,with no effect,MAAASSSDSDACGAESNEANSKWLDAHYDPMANIHTFSACLALADLHGDGEYKLVVGDLGPGGQQPRLKVLKGPLVMTESPLPALPAAAATFLMEQHEPRTPALALASGPCVYVYKNLRPYFKFSLPQLPPNPLEQDLWNQAKEDRIDPLTLKEMLESIRETAEEPLSIQSLRFLQLELSEMEAFVNQHKSNSIKRQTVITTMTTLKKNLADEDAVSCLVLGTENKELLVLDPEAFTILAKMSLPSVPVFLEVSGQFDVEFRLAAACRNGNIYILRRDSKHPKYCIELSAQPVGLIRVHKVLVVGSTQDSLHGFTHKGKKLWTVQMPAAILTMNLLEQHSRGLQAVMAGLANGEVRIYRDKALLNVIHTPDAVTSLCFGRYGREDNTLIMTTRGGGLIIKILKRTAVFVEGGSEVGPPPAQAMKLNVPRKTRLYVDQTLREREAGTAMHRAFQTDLYLLRLRAARAYLQALESSLSPLSTTAREPLKLHAVVQGLGPTFKLTLHLQNTSTTRPVLGLLVCFLYNEALYSLPRAFFKVPLLVPGLNYPLETFVESLSNKGISDKIKVLVLREGQSAPLLSAHVNMPGSEGLAAA [I563K]
2,with no effect,MAAASSSDSDACGAESNEANSKWLDAHYDPMANIHTFSACLALADLHGDGEYKLVVGDLGPGGQQPRLKVLKGPLVMTESPLPALPAAAATFLMEQHEPRTPALALASGPCVYVYKNLRPYFKFSLPQLPPNPLEQDLWNQAKEDRIDPLTLKEMLESIRETAEEPLSIQSLRFLQLELSEMEAFVNQHKSNSIKRQTVITTMTTLKKNLADEDAVSCLVLGTENKELLVLDPEAFTILAKMSLPSVPVFLEVSGQFDVEFRLAAACRNGNIYILRRDSKHPKYCIELSAQPVGLIRVHKVLVVGSTQDSLHGFTHKGKKLWTVQMPAAILTMNLLEQHSRGLQAVMAGLANGEVRIYRDKALLNVIHTPDAVTSLCFGRYGREDNTLIMTTRGGGLIIKILKRTAVFVEGGSEVGPPPAQAMKLNVPRKTRLYVDQTLREREAGTAMHRAFQTDLYLLRLRAARAYLQALESSLSPLSTTAREPLKLHAVVQGLGPTFKLTLHLQNTSTTRPVLGLLVCFLYNEALYSLPRAFFKVPLLVPGLNYPLETFVESLSNKGISDIIKALVLREGQSAPLLSAHVNMPGSEGLAAA [V566A]
